In patent US20040058366, “Novel clock gene bmal2” (published 2004):

Tests used:
cCLOCK = target: T1, cCLOCK (Gallus gallus, UniProt Q8QGQ6 Q8QGQ6:1-875); assay: EMSA; no specific band with cCLOCK alone; settings: label: 32P; within a 39 bp EcoRI fragment excised from pCR2.1
T1 sequence: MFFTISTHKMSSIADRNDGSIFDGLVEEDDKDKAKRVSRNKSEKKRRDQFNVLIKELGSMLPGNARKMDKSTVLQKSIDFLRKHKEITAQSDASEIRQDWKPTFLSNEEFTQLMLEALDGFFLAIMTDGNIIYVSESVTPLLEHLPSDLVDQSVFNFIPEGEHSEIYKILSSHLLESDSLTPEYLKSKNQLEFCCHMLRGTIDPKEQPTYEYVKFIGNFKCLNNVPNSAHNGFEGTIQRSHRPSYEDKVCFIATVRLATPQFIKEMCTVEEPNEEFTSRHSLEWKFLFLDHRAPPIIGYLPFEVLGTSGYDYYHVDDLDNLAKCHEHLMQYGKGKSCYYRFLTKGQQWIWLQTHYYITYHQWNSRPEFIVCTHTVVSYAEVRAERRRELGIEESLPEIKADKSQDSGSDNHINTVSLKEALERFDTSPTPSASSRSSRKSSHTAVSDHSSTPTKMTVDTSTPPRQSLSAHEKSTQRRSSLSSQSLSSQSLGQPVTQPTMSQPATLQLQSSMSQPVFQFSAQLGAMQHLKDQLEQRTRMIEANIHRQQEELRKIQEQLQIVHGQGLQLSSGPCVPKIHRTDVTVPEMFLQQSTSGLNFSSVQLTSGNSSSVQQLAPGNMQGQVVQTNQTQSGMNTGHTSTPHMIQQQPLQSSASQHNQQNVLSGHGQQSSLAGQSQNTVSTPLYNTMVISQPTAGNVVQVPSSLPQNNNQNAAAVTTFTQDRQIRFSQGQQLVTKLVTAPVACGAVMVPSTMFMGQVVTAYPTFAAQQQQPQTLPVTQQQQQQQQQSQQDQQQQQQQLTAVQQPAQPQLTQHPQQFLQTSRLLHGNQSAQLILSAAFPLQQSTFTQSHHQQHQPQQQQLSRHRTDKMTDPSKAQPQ
Description: (§1) For preparation of the probe, oligonucleotides [cP2E1-S: 5′-GTGTCACACGTGAGGCTTA-3′ (Seq. ID No. 59) and cP2E1-AS: 5′-TAAGCCTCACGTGTGACAC-3′ (Seq. ID No. 60)] were synthesized that correspond to the E-box sequence and its flanking sequences within a putative promoter/enhancer region of cPer2 gene. These oligonucleotides synthesized were annealed together and subcloned into a pCR2.1 vector using TOPO-TA cloning kit (Invitrogen, Calif.), from which a 39 bp fragment was excised with a restriction enzyme EcoRI and used. The above-mentioned cBMAL1, cBMAL2 and cCLOCK were prepared by being transcribed and translated in vitro from an expression plasmid containing the cDNA of cBmal1, cBmal2 or cClock with the aid of TNT-T7 Quick Coupled Transcription/Translation System (Promega). […]
(§2) 5 μL each of the protein mixtures thus obtained (BMAL1+BMAL2, BMAL1+CLOCK, BMAL2+CLOCK) was added with 32 μL of buffer [25 mM Hepes-KOH (pH 7.6), 100 mM KCl, 0.1 mM EDTA, 10% (v/v) glycerol, 7.5 mM MgCl₂, 1 mM DTT and 1 μg denatured salmon sperm DNA] containing a ³²P-labeled probe (33 fmoles, 1.3×10⁵ cpm) andwas incubated for 20 min at 23° C. After the incubation, each mixture was separated by a 6% polyacrylamide gel electrophoresis and analyzed similarly as in Example 7 using a FLA2000 bioimage analyzer (FUJI PHOTO FILM). […]

cBMAL2 = target: T2, cBMAL2 (Gallus gallus, UniProt Q8QGQ7 SEQ:1-622); assay: EMSA; no specific band with cBMAL2 alone; settings: label: 32P; within a 39 bp EcoRI fragment excised from pCR2.1
T2 sequence: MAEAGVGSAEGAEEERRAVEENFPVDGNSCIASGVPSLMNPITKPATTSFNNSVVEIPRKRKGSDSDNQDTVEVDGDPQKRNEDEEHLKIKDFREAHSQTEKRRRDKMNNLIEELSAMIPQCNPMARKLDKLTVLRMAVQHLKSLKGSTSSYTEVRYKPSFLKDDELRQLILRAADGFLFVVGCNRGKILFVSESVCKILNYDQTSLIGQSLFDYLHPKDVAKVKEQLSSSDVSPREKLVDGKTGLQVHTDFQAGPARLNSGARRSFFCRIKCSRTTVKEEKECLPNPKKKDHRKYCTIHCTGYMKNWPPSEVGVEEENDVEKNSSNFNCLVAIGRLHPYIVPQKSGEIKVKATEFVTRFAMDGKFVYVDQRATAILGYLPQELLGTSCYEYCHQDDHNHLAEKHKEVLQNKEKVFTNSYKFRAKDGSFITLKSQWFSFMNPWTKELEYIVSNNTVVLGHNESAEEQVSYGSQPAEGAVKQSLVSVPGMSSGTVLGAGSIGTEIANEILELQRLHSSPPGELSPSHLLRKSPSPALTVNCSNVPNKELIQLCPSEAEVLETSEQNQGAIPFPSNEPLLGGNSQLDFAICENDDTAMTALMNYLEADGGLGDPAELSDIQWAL
Description: as §1, §2

[1] = target: cBMAL1-cCLOCK heterodimer (Gallus gallus, UniProt Q9I8T7;Q8QGQ6 Q9I8T7:1-633,Q8QGQ6:1-875); assay: EMSA; two or three specific complexes; 7.5 mM MgCl2, 100 mM KCl, pH 7.6, 23 C; settings: tags: TNT-T7 coupled transcription/translation; label: 32P; within a 39 bp EcoRI fragment excised from pCR2.1
Description: as §1, §2

[2] = target: T3, cBMAL2-cCLOCK heterodimer (Gallus gallus, UniProt Q8QGQ7;Q8QGQ6 Q8QGQ7:1-622,Q8QGQ6:1-875); assay: as above; settings: tags: TNT-T7 coupled transcription/translation; label: 32P; within a 39 bp EcoRI fragment excised from pCR2.1
T3 sequence 1: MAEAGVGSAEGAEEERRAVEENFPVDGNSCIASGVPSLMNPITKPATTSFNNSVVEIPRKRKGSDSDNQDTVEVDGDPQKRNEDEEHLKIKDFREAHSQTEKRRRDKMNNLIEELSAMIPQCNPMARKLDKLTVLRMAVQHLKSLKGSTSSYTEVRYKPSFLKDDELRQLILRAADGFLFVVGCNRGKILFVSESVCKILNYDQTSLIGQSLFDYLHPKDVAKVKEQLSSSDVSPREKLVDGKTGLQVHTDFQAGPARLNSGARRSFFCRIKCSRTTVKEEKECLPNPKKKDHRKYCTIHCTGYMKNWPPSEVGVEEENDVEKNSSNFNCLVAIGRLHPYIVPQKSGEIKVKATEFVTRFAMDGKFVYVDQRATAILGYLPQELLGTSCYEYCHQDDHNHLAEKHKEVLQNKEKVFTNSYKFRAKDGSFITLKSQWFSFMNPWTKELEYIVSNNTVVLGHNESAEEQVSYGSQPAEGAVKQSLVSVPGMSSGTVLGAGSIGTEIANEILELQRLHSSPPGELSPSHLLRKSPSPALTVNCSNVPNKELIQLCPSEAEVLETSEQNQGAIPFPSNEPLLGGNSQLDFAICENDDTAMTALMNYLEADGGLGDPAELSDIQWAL
T3 sequence 2: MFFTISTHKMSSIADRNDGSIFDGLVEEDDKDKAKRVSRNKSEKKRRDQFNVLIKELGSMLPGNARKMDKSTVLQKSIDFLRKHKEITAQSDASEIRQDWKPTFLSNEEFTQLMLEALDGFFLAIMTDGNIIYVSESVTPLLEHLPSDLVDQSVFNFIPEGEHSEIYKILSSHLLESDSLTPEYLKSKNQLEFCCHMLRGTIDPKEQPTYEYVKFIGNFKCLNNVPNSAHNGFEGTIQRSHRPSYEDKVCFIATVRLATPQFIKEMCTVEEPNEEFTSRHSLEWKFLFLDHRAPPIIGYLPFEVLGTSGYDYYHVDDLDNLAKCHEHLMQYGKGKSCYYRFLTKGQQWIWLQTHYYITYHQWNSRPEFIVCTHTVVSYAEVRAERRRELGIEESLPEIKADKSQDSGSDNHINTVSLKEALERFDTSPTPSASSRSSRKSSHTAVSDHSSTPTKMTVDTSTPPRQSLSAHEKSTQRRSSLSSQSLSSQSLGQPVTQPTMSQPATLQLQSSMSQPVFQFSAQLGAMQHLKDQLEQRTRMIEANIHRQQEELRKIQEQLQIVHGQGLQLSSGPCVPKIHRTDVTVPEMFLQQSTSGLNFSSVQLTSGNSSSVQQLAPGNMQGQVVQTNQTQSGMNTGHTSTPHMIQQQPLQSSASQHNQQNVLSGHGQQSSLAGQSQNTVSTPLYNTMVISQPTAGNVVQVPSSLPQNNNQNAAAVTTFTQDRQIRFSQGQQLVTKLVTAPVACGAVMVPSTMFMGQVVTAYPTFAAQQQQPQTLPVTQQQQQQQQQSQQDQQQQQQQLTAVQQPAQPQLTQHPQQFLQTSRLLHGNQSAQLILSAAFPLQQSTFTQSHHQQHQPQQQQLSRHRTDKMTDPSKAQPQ
Description: as §1, §2

cBMAL1 = cBMAL1 (Gallus gallus, UniProt Q9I8T7 Q9I8T7:1-633); assay: EMSA; no specific band with cBMAL1 alone; settings: label: 32P; within a 39 bp EcoRI fragment excised from pCR2.1
Description: as §1, §2

Chain of cBMAL1-cCLOCK heterodimer (Q9I8T7 whole entry, the tested form may be a part, one chain of several): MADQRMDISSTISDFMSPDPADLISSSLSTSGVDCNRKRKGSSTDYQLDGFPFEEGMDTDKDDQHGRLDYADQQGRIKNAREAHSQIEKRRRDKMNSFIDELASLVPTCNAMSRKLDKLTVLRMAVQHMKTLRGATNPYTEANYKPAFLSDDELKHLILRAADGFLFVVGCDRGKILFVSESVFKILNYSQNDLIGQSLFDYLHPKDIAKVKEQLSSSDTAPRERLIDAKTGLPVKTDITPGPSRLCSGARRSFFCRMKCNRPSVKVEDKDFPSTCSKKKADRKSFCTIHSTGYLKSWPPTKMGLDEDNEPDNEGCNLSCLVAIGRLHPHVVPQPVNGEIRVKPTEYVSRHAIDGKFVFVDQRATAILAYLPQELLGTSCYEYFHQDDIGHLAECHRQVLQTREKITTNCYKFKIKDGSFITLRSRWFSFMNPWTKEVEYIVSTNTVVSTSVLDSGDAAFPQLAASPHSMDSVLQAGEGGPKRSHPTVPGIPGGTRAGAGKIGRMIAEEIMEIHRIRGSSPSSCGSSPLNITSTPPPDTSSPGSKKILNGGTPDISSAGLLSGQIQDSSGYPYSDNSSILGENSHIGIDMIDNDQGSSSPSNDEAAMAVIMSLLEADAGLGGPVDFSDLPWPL
Chain of cBMAL1 (Q9I8T7 whole entry, the tested form may be a part, one chain of several): as above

B1: cPer2 E-box probe (dsDNA)
DNA 1: GTGTCACACGTGAGGCTTA
DNA 2: TAAGCCTCACGTGTGACAC
- binding result (cCLOCK): no binding
- binding result (cBMAL2): no binding
- binding result [1]: binds
- binding result [2]: binds
- binding result (cBMAL1): no binding
